Data taken from IntAct's records for PubMed 19587294.

B1: Tetraspanin-12 (Homo sapiens), O95859 (parent)
chain: MAREDSVKCLRCLLYALNLLFWLMSISVLAVSAWMRDYLNNVLTLTAETRVEEAVILTYFPVVHPVMIAVCCFLIIVGMLGYCGTVKRNLLLLAWYFGSLLVIFCVELACGVWTYEQELMVPVQWSDMVTLKARMTNYGLPRYRWLTHAWNFFQREFKCCGVVYFTDWLEMTEMDWPPDSCCVREFPGCSKQAHQEDLSDLYQEGCGKKMYSFLRGTKQLQVLRFLGISIGVTQILAMILTITLLWALYYDRREPGTDQMMSLKNDNSQHLSCPSVELLKPSLSRIFEHTSMANSFNTHFEMEEL

Variants of: B1
Conditions: with ada10_human ADAM10, O14672
Chain of ada10_human ADAM10, O14672 (O14672 whole entry): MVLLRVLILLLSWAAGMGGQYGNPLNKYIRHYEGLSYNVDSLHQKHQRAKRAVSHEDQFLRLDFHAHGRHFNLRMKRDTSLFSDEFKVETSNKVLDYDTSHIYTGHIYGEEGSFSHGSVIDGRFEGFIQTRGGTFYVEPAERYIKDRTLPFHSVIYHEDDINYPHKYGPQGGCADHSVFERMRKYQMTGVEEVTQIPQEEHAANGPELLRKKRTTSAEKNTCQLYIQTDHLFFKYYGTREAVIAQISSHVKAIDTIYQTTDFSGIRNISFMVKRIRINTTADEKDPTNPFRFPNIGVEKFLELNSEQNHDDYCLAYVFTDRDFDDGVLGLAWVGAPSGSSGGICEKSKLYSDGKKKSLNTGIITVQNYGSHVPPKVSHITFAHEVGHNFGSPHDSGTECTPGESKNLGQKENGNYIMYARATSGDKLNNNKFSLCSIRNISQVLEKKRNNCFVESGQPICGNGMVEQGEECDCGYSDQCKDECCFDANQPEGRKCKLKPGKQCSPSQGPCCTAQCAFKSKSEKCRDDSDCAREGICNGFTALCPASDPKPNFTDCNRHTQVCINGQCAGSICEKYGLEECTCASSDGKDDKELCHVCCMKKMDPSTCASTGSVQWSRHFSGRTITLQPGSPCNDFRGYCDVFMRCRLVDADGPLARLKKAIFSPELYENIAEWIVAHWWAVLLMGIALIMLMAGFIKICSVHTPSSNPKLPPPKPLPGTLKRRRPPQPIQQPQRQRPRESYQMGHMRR

| effect of a mutation on the interaction | Variant |
| --- | --- |
| disrupting interaction strength | C9S;C12S;C83S |
| decreasing interaction strength | R88E |
